Measured values as given in US20180346588A1 (MOGAM INSTITUTE FOR BIOMEDICAL RESEARCH, published 2018).

Biological target: T1, recombinant human mesothelin (MSLN) (human, UniProt Q13421 296-580, limits assumed)
T1 construct: also called human MSLN; recombinant human MSLN
Test: SPR, Biacore T-200; MSLN amine-coupled to CM5 chip, IgG in flow
Description: Quantitative binding force (affinity) of the purified anti-MSLN antibodies, i.e., the MS502 clone light chain variable region mutation antibodies C2G1, C2G4, and C3C8 with regard to the recombinant human mesothelin (MSLN) was measured by using a Biacore T-200 (GE Healthcare, U.S.A.) biosensor. […] Then, the clone C2G1 antibody, the clone C2G4 antibody or the clone C3C8 antibody serially diluted with HBS-EP buffer (10 mM HEPES, pH7.4, 150 mM NaCl, 3 mM EDTA, 0.005% surfactant P20) was allowed to flow at a concentration range of 0.078 nM to 5 nM and at a flow rate of 30 μL/min for association of 120 seconds and dissociation of 1800 seconds. The dissociation of the antibody bound to the MSLN was induced by flowing 10 mM Glycine-HCl pH 1.5 at a flow rate of 30 μL/min for 30 seconds (Table 13). The affinity was obtained as movement speed constants (Kₒₙ and Koff) and an equilibrium dissociation constant (KD) by using a Biacore T-200 evaluation software (Table 14).

T1 sequence (Q13421 other isoform, or with tags, fused parts or gaps limits assumed): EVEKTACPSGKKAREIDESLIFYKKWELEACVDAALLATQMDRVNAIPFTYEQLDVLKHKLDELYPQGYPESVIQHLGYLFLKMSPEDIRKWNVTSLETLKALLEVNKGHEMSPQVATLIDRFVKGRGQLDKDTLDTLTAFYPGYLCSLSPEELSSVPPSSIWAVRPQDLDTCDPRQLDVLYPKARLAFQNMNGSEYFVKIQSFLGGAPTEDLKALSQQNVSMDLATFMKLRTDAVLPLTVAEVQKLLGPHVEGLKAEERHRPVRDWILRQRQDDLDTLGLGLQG

Kd | Binder
0.0939 nM | clone C2G1 (MS502 light chain variable region mutation antibody) (antibody, V domains shown, SPR done with IgG (human IgG1 heavy constant region)) VH: EVQLLESGGGLVQPGGSLRLSCAASGFTFSNYAMSWVRQAPGKGLEWVSGIPPDSGSKYYADSVRGRFTVSRDNSKNTLYLQMNSLRAEDTAVYYCAKNMLSFDYWGQGTLVTVSS VL: QSVLTQPPSASGTPGQRVTISCTGSSSNIGPNAVSWYQQLPGTAPKLLIYYNSKRPSGVPDRFSGSKSGTSASLAISGLRSEDEADYYCGSWDSSLSGYVFGGGTKVTVLG
0.122 nM | clone C3C8 (MS502 light chain variable region mutation antibody) (antibody, V domains shown, SPR done with IgG (human IgG1 heavy constant region)) VH: EVQLLESGGGLVQPGGSLRLSCAASGFTFSNYAMSWVRQAPGKGLEWVSGIPPDSGSKYYADSVRGRFTVSRDNSKNTLYLQMNSLRAEDTAVYYCAKNMLSFDYWGQGTLVTVSS VL: QSVLTQPPSASGTPGQRVTISCTGSSSNIGPNAVSWYQQLPGTAPKLLIYYNSKRPSGVPDRFSGSKSGTSASLAISGLRSEDEADYYCGSWDSDLRGYVFGGGTKVTVLG
0.0432 nM | clone C2G4 (MS502 light chain variable region mutation antibody) (antibody, V domains shown, SPR done with IgG (human IgG1 heavy constant region)) VH: EVQLLESGGGLVQPGGSLRLSCAASGFTFSNYAMSWVRQAPGKGLEWVSGIPPDSGSKYYADSVRGRFTVSRDNSKNTLYLQMNSLRAEDTAVYYCAKNMLSFDYWGQGTLVTVSS VL: QSVLTQPPSASGTPGQRVTISCTGSSSNIGSNAVSWYQQLPGTAPKLLIYYNSKRPSGVPDRFSGSKSGTSASLAISGLRSEDEADYYCGSWDPSLNGYVFGGGTKVTVLG
